Experimental findings from article PMC5172437 are described below.

The target in series [1] is T1, human tumor necrosis factor alpha (hTNFa) (human, UniProt P01375 77-233). The series can be described thus: ELONA.
The target in series [2] is T1, human tumor necrosis factor alpha ….
Series [3] has the same target. Briefly: ELONA. The source holds these as a separate data set.
Series [4] shares this target. The series can be described thus: ELONA. This is another data set of the same source.
The target is the same in series [5]. This is another data set of the same source.

Where two headings read alike, the source gives them in different places.

T1 sequence (P01375 77-233): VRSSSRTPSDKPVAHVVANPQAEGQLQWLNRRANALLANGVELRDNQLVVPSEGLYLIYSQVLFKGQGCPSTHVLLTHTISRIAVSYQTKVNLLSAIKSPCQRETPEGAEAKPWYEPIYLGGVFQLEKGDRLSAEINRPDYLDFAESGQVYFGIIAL

As for CGUGCUAGAUGCUACGAGUGGUCUCCUCACGUAGAAGGGG (ssRNA) [16.3 random region], the binding result in series [1] is “binds”.
Regarding AGGACGUACUUGGAAAAGAGGCGCGAAGAACCUGGUAUGU (ssRNA) [8.6 random region], the binding result in series [1] is listed as “binds”.
UACGGAUUAGGUUGUAGCUCAGACCAGUA (ssRNA) [T4.14.8 (29 nt)]: the binding result in series [2] is “binds”.
Consider CGUUGUAGUAGUGGCUUGGGCAUAACUCAGUUAAACACUA (ssRNA) [20.4 random region], for which the binding result in series [1] is “binds”.
Regarding CCCCGGGUUCUGUAUGAUCCGACCGGUCAGAUAAGACCAC (ssRNA) [3.1 random region], the binding result in series [1] is given as “binds”.
In the case of CGUAUAUACGGAUUAGGUUGUAGCUCAGACCAGUAAUGUC (ssRNA) [14.8 random region], in series [3], the binding result is on record as “binds”.
Regarding CAAGCCGAGGGGGAGUAUCUGAUGACAAUUCGGAGCUCCA (ssRNA) [11.7 random region], the binding result in series [4] is given as “binds”.
Turning to CGCAUCGUUUGCGUGGCGUGUCCGGGCGCCGAUUCGUAAA (ssRNA) [7.5 random region], the binding result in series [3] is “binds”.
GGUCCCACAUAGGUUGGUCUUGUUGUAUGGGCUGUUUGCA (ssRNA) [18.10 random region]: the binding result in series [1] was “binds”.
With GGAGUAUCUGAUGACAAUUCGGAGCUCC (ssRNA) [T3.11.7 (28 nt)], in series [5], the binding result was “binds”.
Take UCAUGGUGUGUGAGUUAGCUCACGUGCCGUUUCGAAGGCG (ssRNA) [13.2 random region]: in series [3], the binding result was “binds”.
As to CAUGGGCUAGACCGGCAUAAAACUGCUGUAGUUGCACGCC (ssRNA) [17.9 random region], the binding result in series [1] is on record as “binds”.
